Results taken from patent publication US20100190699A1 (INDIANA UNIVERSITY RESEARCH AND TECHNOLOGY, published 2010).
Each block holds one binder with its values, some of them ahead of it.

How the values were obtained:
Assay in all cases: cell-based or functional assay
glucagon receptor [1] = target: T1, glucagon receptor (UniProt P47871 26-477, limits assumed)
GLP-1 receptor = GLP-1 receptor (UniProt P43220 24-463, limits assumed)
glucagon receptor [2] = target: T1, glucagon receptor; remark: listed apart in the source

T1 sequence (P47871 26-477 limits assumed): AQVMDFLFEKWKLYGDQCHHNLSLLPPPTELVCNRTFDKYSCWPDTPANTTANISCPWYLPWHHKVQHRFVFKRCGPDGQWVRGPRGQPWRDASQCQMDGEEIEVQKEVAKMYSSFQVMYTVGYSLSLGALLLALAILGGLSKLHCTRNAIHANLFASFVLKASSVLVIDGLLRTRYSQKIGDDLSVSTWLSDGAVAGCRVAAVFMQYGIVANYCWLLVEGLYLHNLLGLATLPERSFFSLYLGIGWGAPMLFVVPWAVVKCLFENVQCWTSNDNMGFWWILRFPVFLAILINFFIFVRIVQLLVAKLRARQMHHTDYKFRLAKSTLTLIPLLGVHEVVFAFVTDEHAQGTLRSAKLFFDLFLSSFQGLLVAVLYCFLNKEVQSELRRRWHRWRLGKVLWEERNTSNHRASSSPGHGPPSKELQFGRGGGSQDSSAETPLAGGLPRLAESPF

Binder: HSQGTFTSDYSKYLDSRRAQDFVQWLMDTE [glucagon analog D28, E30]
- Observed EC50 (cAMP induction), Test 3 (glucagon receptor [1]): 50 pM

Binder: HSQGTFTSDYSKYLDSRRAQDFVQWLMNTE [glucagon analog E30]
- Observed EC50 (cAMP induction), Test 2 (glucagon receptor [1]): 40 pM

Binder: HSQGTFTSDYSKYLDSRRAQDFVQWLMDE [glucagon analog D28, E29]
- Observed EC50 (cAMP induction), Test 3 (glucagon receptor [1]): 30 pM

Binder: HSQGTFTSDYSKYLESRRAQDFVQWLMDT [glucagon analog D28, E15]
- Observed EC50 (cAMP induction), Test 3 (glucagon receptor [1]): 150 pM

Binder: HSQGTFTSDYSRYLDSRRAQDFVQWLMNK [Glucagon R12 K29]
- cAMP Induction, EC50 (luciferase reporter) (GLP-1 receptor): 410 pM
- cAMP Induction, EC50 (luciferase reporter) (glucagon receptor [2]): 810 pM

Further lines, results first:

- Observed EC50 (cAMP induction), Test 1 (glucagon receptor [1]): 890 pM
Binder: HSQGTFTSDYSKYLDSRRAQDFVQWLMNKK [glucagon analog K29, K30]

- Observed EC50 (cAMP induction), Test 2 (glucagon receptor [1]): 120 pM
Binder: HSQGTFTSDYSKYLDSRRAQDFVQWLMNTKK [glucagon analog K30, K31]
